Assay [1] addresses T1, CD47 receptor (UniProt Q08722 19-323, limits assumed).
T1 construct: whole, on cells; The assays used a whole MEC-1 cell membrane preparation, not purified CD47; also called membrane preparation from MEC-1 cells
The experiment in a line: microscale thermophoresis (MST), labeled MEC-1 membrane preparation. On the procedure:
(§1) For all experiments the concentration of the NT.115-labeled membrane was kept constant, while the concentrations of the ligand (peptide) was varied. After a short incubation time (5 min) the samples were loaded into MST premium glass capillaries and the MST analysis was performed using the Monolith NT.115.

Assay [2] concerns the target T1, CD47 receptor. The experiment in a line: column Kd (OR); biolayer interferometry on Octet RED96, biotinylated MEC-1 membrane preparation on SSA biosensors. (In general: Biolayer interferometry detects binding as a change in optical thickness at a sensor tip.)
Assay [3] deals with T1, CD47 receptor. The experiment in a line: binding to MEC-1 membrane preparation; method not named in Table 3 (same value as the OR column of Table 2).
Assay [4] addresses T1, CD47 receptor. The experiment in a line: binding to MEC-1 membrane preparation; method not named in Table 3.
Assay [5] deals with T1, CD47 receptor. The experiment in a line: column Kd(µM)PR; binding to MEC-1 membrane preparation, method not named in Table 4.
Assay [6] concerns the target T1, CD47 receptor. The experiment in a line: apparent Kd, biolayer interferometry (BI) on Octet RED96, biotinylated MEC-1 membrane preparation on SSA biosensors. An excerpt: This system monitors interference of light reflected from two sources (an internal reflection surface and the liquid/solid interface of a fiber optic sensor) to measure the rate of binding of molecules to the biosensor surface. MEC-1 cells membrane preparation is biotinylated with the EZ-Link NHS-PEG4-Biotin kit from Thermo-Scientific and excess biotin is removed using desalting column from Thermo-Scientific. […] Typically, the biosensors were pre-equilibrated in PBS containing either biotinylated membranes or biocytine 100 μg/mL. Biosensors are then equilibrated in assay buffer for 10 min, brought to baseline in assay buffer for 60 sec. and transferred to wells containing peptide in dose-response (association for 120 sec. and dissociation for 300 sec.). The double reference with either membrane-loaded biosensors without any peptide dose-response or biocytine-loaded biosensors with each peptide dose-response were run in parallel for background signal double subtractions.

For assay [7], the target named is T1, CD47 receptor. The experiment in a line: apparent Kd, microscale thermophoresis (MST), Monolith NT.115, NT.115-labeled membrane. How it is done: as §1
For orientation: MST reads how a fluorescent partner responds to local heating, with and without ligand.

Non-standard residues stand in square brackets, D forms with d. No end group written: not given here. NMeR = CN[C@@H](CCCNC(=N)N)C(=O)O; Nle = CCCC[C@H](N)C(=O)O

T1 sequence (Q08722 19-323 limits assumed): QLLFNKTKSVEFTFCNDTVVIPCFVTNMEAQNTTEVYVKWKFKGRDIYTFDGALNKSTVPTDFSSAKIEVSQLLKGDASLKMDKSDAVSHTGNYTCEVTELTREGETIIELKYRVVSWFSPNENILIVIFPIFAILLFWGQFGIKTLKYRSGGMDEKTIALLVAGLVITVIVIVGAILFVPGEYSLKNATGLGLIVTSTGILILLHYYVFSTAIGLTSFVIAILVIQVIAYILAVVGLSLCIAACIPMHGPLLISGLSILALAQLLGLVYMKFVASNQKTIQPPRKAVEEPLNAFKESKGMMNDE

B1: 4N1K (peptide)
peptide: KRFYVVMWKK
notes: Decapeptide that mimics the C-terminal domain of TSP-1
As to B1, the Kd was found to be 2.28 µM in assay [1], 19 µM in assay [2] and 19 µM in assay [3].

B2: R2/A, k(A)FYVVMWKk (peptide)
peptide: H-[dK]AFYVVMWK[dK]-OH
SMILES: CSCC[C@H](NC(=O)[C@@H](NC(=O)[C@@H](NC(=O)[C@H](Cc1ccc(O)cc1)NC(=O)[C@H](Cc1ccccc1)NC(=O)[C@H](C)NC(=O)[C@H](N)CCCCN)C(C)C)C(C)C)C(=O)N[C@@H](Cc1c[nH]c2ccccc12)C(=O)N[C@@H](CCCCN)C(=O)N[C@H](CCCCN)C(=O)O
notes: Ala-scan analogue of PKHB1
For the molecule B2, the Kd in assay [4] was determined as 6.2 µM.
Still for that read-out and setting: then [dK]RFYVVAWK[dK] (Ala-scan analogue of PKHB1) [M7/A, kRFYVV(A)WKk], with 42 µM.

B3: K9/A, kRFYVVMW(A)k (peptide)
peptide: H-[dK]RFYVVMWA[dK]-OH
SMILES: CSCC[C@H](NC(=O)[C@@H](NC(=O)[C@@H](NC(=O)[C@H](Cc1ccc(O)cc1)NC(=O)[C@H](Cc1ccccc1)NC(=O)[C@H](CCCNC(=N)N)NC(=O)[C@H](N)CCCCN)C(C)C)C(C)C)C(=O)N[C@@H](Cc1c[nH]c2ccccc12)C(=O)N[C@@H](C)C(=O)N[C@H](CCCCN)C(=O)O
notes: Ala-scan analogue of PKHB1
As for B3, in assay [4], the Kd came out at 27 µM.

B4: PKT17, H-(D)K ψ(CONMe)R F Y V V L W K (D)K-OH (peptide)
peptide: H-[dK][NMeR]FYVVLWK[dK]-OH
SMILES: CC(C)C[C@H](NC(=O)[C@@H](NC(=O)[C@@H](NC(=O)[C@H](Cc1ccc(O)cc1)NC(=O)[C@H](Cc1ccccc1)NC(=O)[C@H](CCCNC(=N)N)N(C)C(=O)[C@H](N)CCCCN)C(C)C)C(C)C)C(=O)N[C@@H](Cc1c[nH]c2ccccc12)C(=O)N[C@@H](CCCCN)C(=O)N[C@H](CCCCN)C(=O)O
On to B4, for which the Kd in assay [5] is 12 µM.
Regarding H-[dK][NMeR]FYVV[Nle]WK[dK]-OH [PKT16, H-(D)K ψ(CONMe)R F Y V V X W K (D)K-OH], the Kd is 12.1 µM in assay [5], 7.4 µM in assay [6] and 1.6 µM in assay [7].

B5: PKT11, H-(D)K ψ(CONMe)R F Y V V M W K (D)K-OH (peptide)
peptide: KRFYVVMWKK
modifications: (D)-Lys at positions 1 and 10; N-methyl pseudopeptide bond ψ(CONMe) between (D)Lys1 and Arg2
B5: in assay [5], the Kd is 21.7 µM.
With Ac-KRFYVVMWKK-NH2 [peptide 2, Ac-KRFYVVMWKK-NH2], the Kd in assay [1] amounted to 1.2 µM; in assay [2], 40 µM.

B6: PKT15, H-(D)K ψ(CONMe)R F Y V V M W ψ(CONMe)K (D)K-OH (peptide)
peptide: KRFYVVMWKK
modifications: (D)-Lys at positions 1 and 10; N-methyl pseudopeptide bonds ψ(CONMe) between (D)Lys1 and Arg2 and between Trp8 and Lys9
In assay [5], B6 registered a Kd of 16 µM.
In the case of KRFYVVMWKK ((D)-Lys at position 1 and (D)-Lys at position 10, also called 4(PKHB1)) [PKHB1, H-(D)K R F Y V V M W K (D)K-OH], the Kd in assay [5] is 22.6 µM; in assay [1], 3.04 µM; in assay [2] it was 43 µM; in assay [3], 43 µM.

B7: M/Nle, kRFYVV(Nle)WKk (peptide)
peptide: H-[dK]RFYVV[Nle]WK[dK]-OH
SMILES: CCCC[C@H](NC(=O)[C@@H](NC(=O)[C@@H](NC(=O)[C@H](Cc1ccc(O)cc1)NC(=O)[C@H](Cc1ccccc1)NC(=O)[C@H](CCCNC(=N)N)NC(=O)[C@H](N)CCCCN)C(C)C)C(C)C)C(=O)N[C@@H](Cc1c[nH]c2ccccc12)C(=O)N[C@@H](CCCCN)C(=O)N[C@H](CCCCN)C(=O)O
The molecule B7 had a Kd in assay [4] of 18 µM.
